B1: Cold shock protein CspB, P41016 (parent)
chain: MQRGKVKWFNNEKGYGFIEVEGGSDVFVHFTAIQGEGFKTLEEGQEVSFEIVQGNRGPQAANVVKL

Variants of: B1
Details: Bacillus caldolyticus, pH 7, Thermal, CD, Sodium cacodylate-HCl 0.1 M, reversible: yes, structure 1C9O, whole UniProt chain shown; for ddG of mutation (higher = less stable) / unfolding free energy: 70 °C

Row | Variant | ddG of mutation (higher = less stable) (NaCl 2 M) | unfolding free energy (NaCl 2 M) | ddG of mutation (higher = less stable) | unfolding free energy | Tm | change of melting temperature, mutant - wild type (higher = more stable) | unfolding enthalpy (van 't Hoff)
1 | Y15F | -0.07 kcal/mol | 2.27 kcal/mol | 0.05 kcal/mol | 1.03 kcal/mol | 76.7 °C | -0.2 °C | 56.6 kcal/mol
2 | Q53E | 0 kcal/mol | 2.2 kcal/mol | 0.1 kcal/mol | 0.98 kcal/mol | 76.1 °C | -0.8 °C | 58.8 kcal/mol
3 | Q2L | -0.29 kcal/mol | 2.49 kcal/mol | -0.55 kcal/mol | 1.63 kcal/mol | 80.9 °C | 4 °C | 57.8 kcal/mol
4 | N11S | -0.22 kcal/mol | 2.41 kcal/mol | -0.33 kcal/mol | 1.41 kcal/mol | 79.2 °C | 2.3 °C | 58.8 kcal/mol
5 | G23Q | 0.31 kcal/mol | 1.89 kcal/mol | 0.29 kcal/mol | 0.79 kcal/mol | 74.7 °C | -2.2 °C | 59.5 kcal/mol
6 | L66E | 1.27 kcal/mol | 0.93 kcal/mol | – | – | – | – | –
7 | L66A | 0.07 kcal/mol | 2.13 kcal/mol | – | – | – | – | –
8 | R3E L66E | – | – | – | – | 44.6 °C | -32.3 °C | 36.8 kcal/mol
9 | T31S | -0.19 kcal/mol | 2.39 kcal/mol | -0.17 kcal/mol | 1.24 kcal/mol | 77.8 °C | 0.9 °C | 59.8 kcal/mol
10 | E46A | 0.12 kcal/mol | 2.08 kcal/mol | 0.22 kcal/mol | 0.86 kcal/mol | 75.4 °C | -1.5 °C | 57.6 kcal/mol
11 | V64T | 0.19 kcal/mol | 2.01 kcal/mol | – | – | 75.1 °C | -1.8 °C | 58.3 kcal/mol
12 | S24D | -0.19 kcal/mol | 2.39 kcal/mol | -0.22 kcal/mol | 1.29 kcal/mol | 77.8 °C | 0.9 °C | 61.7 kcal/mol
13 | R3E | 1 kcal/mol | 1.2 kcal/mol | – | – | 59.1 °C | -17.8 °C | 45.6 kcal/mol

Reference: FireProtDB (doi:10.1038/75151)
